Assay results: patent US7166733B2, “O,O'-Amidomalonate and N,O-Amidomalonate platinum complexes” (priority 2000, dated 2007)

Key:
[1] = Single-dose IV maximum tolerated dose study; assay type: in vivo; conditions: mice, highest dose with no drug-induced deaths
Excerpt: For these studies, the MTD was defined as the highest dose evaluated in which no mouse deaths resulted from drug-induced toxicity.

[2] = Dependence on pH of the isomer ratio of O,O′—Pt to N,O—Pt chelate (195Pt NMR of timed aliquots); assay type: physicochemical
Method: The percent of O,O′- and N,O-chelate in timed aliquots of reactions mixtures were determined by removing enough of the reaction mixture (4–15 mL depending on concentration) to give greater than 100 mg of Pt-chelate if only ^195Pt NMR spectroscopy was to be done or about 200 mg if % Pt, and % H2O were also to be determined. The aliquots were purified by ultrafiltration using a Centricon Plus-20 centrifugal filter with a 5 kDa Biomax membrane from Millipore. The charged device was spun at the recommended RCF until less than 1 mL remained. The filtrate was discarded, the retentate was diluted with 15–18 mL water and the sample was centrifuged. This was repeated once more, and the retentate was lyophilized to give the sample for analysis.
^195Pt NMR spectra were obtained from a filtered 0.70 mL solution in 93/7 H2O/D2O in a 5 mm tube. Enough sample (80–120 mg) was used to give a solution that was >50 mM in platinum. The probe was tuned for each sample. A pulse width of 90 degrees, an acquisition time of 10 msec, a spectral window of 100 kHz and no delay was used. The transmitter was tuned to approximately midway between the O,O′—Pt and N,O—Pt chelates shifts (−1896 ppm for cis-diammine Pt and at −2450 for DACH—Pt). Between 50,000 and 1 million transients were typically required to obtain a sufficient (>35:1) s/n ratio for the cis-diammine-Pt and DACH=Pt species, respectively. The resulting FID was increasingly left-shifted until a flat baseline was obtained, a 100 Hz line broadening was applied, and a Fourier fill of 2048 was applied before processing. Integral regions were set and the spectrum's baseline was subjected to a spline fit using VNMR software v6.1. The sample was referenced externally to a 100 mM sample of K2PtCl4 in 95/5H2O/D2O and 100 mM HCl at −1624 ppm. This was also used to determine the 90 degree pulse width and T1.
Four 50 mL Centrifuge tubes were each charged with 1.00 g of p(HPMA)-GFLG-Ama=Pt(NH3)2 (either 100% N,O-chelate) or a 92% O,O-chelate, 8% N,O-chelate mixture. These materials were dissolved in 27 mL Milli-Q water (approx a 4 wt % solution) and adjusted to the pH ranges desired using 1 M NaOH or 5% HClO4 as appropriate. The samples were then heated, with stirring, in a 38° C. water bath and maintained within their specified pH ranges. Timed aliquots were taken and frozen until a suitable time at which point the solutions were concentrated by centrifugal ultrafiltration (one spin down at 4800 rpm, 30° C.) and then transferred to an NMR tube. A small amount of D2O was added to each tube and the ^195Pt NMR spectra were recorded.

Bl6FI0 melanoma cells = assay: Clonogenic (colony-formation) assay; assay type: cell-based, murine; conditions: 7 days incubation
Method: The relative cytotoxic activity of various O,O′—Pt chelate analogs were evaluated in vitro by means of a clonogenic (colony-formation) assay employing a tissue culture of Bl6FI0 melanoma cells. In this way, the activity of the analogs was compared to that of cisplatin and carboplatin. The effect of conversion to an N,O—Pt chelate was also evaluated. Briefly, cells were seeded into culture dishes and allowed to attach. The cultures were incubated for 7 days in medium containing the desired concentration of the test agent. After fixation, the number of cell clusters containing >50 cells was scored as a colony. Each concentration of test agent was assayed in triplicate. The mean number of colonies in each of the triplicate dishes was divided by the mean number of colonies in the control (no test agent) dishes to obtain a percent survival value for each concentration of test agent. The IC50 (concentration resulting in 50% inhibition of growth) of each of the agents was determined by linear regression analysis using the data values directly above and below the 50% survival point.

[3] = pH 5.0–5.5, 38° C., 100 mM ClO4^−, 1 h
[4] = pH 5.0–5.5, 38° C., 100 mM ClO4^−, 5 h
[5] = pH 5.0–5.5, 38° C., 100 mM ClO4^−, 8 h
[6] = pH 5.0–5.5, 38° C., 100 mM ClO4^−, 22 h
[7] = pH 5.0–5.5, 38° C., 100 mM Cl^−, 1 h
[8] = pH 5.0–5.5, 38° C., 100 mM Cl^−, 5 h
[9] = pH 5.0–5.5, 38° C., 100 mM Cl^−, 8 h
[10] = pH 5.0–5.5, 38° C., 100 mM Cl^−, 22 h

poly(HPMA)-GFLG-Ama=Pt(NH3)2, N,O—Pt chelate [Example 4]
maximum tolerated dose (MTD) [1]: 400 mg PVkg
N,O— chelate ([2]; pH 3.0–3.5, 38° C., 1 h): 2%
O,O— chelate ([2]; pH 3.0–3.5, 38° C., 1 h): 98%
N,O— chelate ([2]; pH 3.0–3.5, 38° C., 5 h): 0%
O,O— chelate ([2]; pH 3.0–3.5, 38° C., 5 h): 100%
N,O— chelate ([2]; pH 3.0–3.5, 38° C., 20 h): 0%
O,O— chelate ([2]; pH 3.0–3.5, 38° C., 20 h): 100%
N,O— chelate ([2]; pH 4.0–4.5, 38° C., 1 h): 55%
O,O— chelate ([2]; pH 4.0–4.5, 38° C., 1 h): 45%
N,O— chelate ([2]; pH 4.0–4.5, 38° C., 5 h): 44%
O,O— chelate ([2]; pH 4.0–4.5, 38° C., 5 h): 56%
N,O— chelate ([2]; pH 4.0–4.5, 38° C., 20 h): 32%
O,O— chelate ([2]; pH 4.0–4.5, 38° C., 20 h): 68%
N,O— chelate [2, 3]: 90%
O,O— chelate [2, 3]: 10%
N,O— chelate [2, 4]: 88%
O,O— chelate [2, 4]: 12%
N,O— chelate [2, 5]: 77%
O,O— chelate [2, 5]: 23%
N,O— chelate [2, 6]: 75%
O,O— chelate [2, 6]: 25%
N,O— chelate [2, 7]: 91%
O,O— chelate [2, 7]: 9%
N,O— chelate [2, 8]: 92%
O,O— chelate [2, 8]: 8%
N,O— chelate [2, 9]: 89%
O,O— chelate [2, 9]: 11%
N,O— chelate [2, 10]: 87%
O,O— chelate [2, 10]: 13%
N,O— chelate ([2]; pH 5.0–5.5, 38° C., 1 h): 94%
O,O— chelate ([2]; pH 5.0–5.5, 38° C., 1 h): 6%
N,O— chelate ([2]; pH 5.0–5.5, 38° C., 5 h): 85%
O,O— chelate ([2]; pH 5.0–5.5, 38° C., 5 h): 15%
N,O— chelate ([2]; pH 5.0–5.5, 38° C., 20 h): 81%
O,O— chelate ([2]; pH 5.0–5.5, 38° C., 20 h): 19%
N,O— chelate ([2]; pH 6.0–6.5, 38° C., 1 h): 100%
O,O— chelate ([2]; pH 6.0–6.5, 38° C., 1 h): 0%
N,O— chelate ([2]; pH 6.0–6.5, 38° C., 5 h): 100%
O,O— chelate ([2]; pH 6.0–6.5, 38° C., 5 h): 0%
N,O— chelate ([2]; pH 6.0–6.5, 38° C., 20 h): 100%
O,O— chelate ([2]; pH 6.0–6.5, 38° C., 20 h): 0%
IC50 (Bl6FI0 melanoma cells): 3.4 µM
